Results from patent US20240076396A1 (Regeneron, published 2024).

B1: CompAb1 heavy chain variant N101I (antibody, human IgG1, V domains shown)
VH: QVQLQESGPGLVKPSETLSLTCIVSGGSISGYFWNWIRQPPGKGLEWIGYIYYSGTTIYNPSLKSRFTISLDTSKNQFSLKLTSVTAADTAVYYCARESYIPSPRYFDHWGQGTLVTVSS
VL: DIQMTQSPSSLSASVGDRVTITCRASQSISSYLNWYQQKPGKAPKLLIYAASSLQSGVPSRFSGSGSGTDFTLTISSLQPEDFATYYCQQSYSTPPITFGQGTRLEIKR
notes: human IgG1 constant region; tested as CHOt supernatant; also called Sample Number 8
B2: CompAb1 heavy chain variant N101M (antibody, human IgG1, V domains shown)
VH: QVQLQESGPGLVKPSETLSLTCIVSGGSISGYFWNWIRQPPGKGLEWIGYIYYSGTTIYNPSLKSRFTISLDTSKNQFSLKLTSVTAADTAVYYCARESYMPSPRYFDHWGQGTLVTVSS
VL: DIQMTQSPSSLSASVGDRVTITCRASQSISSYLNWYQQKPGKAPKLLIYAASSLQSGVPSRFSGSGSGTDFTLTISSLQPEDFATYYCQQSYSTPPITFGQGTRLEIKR
notes: human IgG1 constant region; tested as CHOt supernatant; also called Sample Number 11
B3: CompAb1 heavy chain variant S103N (antibody, human IgG1, V domains shown)
VH: QVQLQESGPGLVKPSETLSLTCIVSGGSISGYFWNWIRQPPGKGLEWIGYIYYSGTTIYNPSLKSRFTISLDTSKNQFSLKLTSVTAADTAVYYCARESYNPNPRYFDHWGQGTLVTVSS
VL: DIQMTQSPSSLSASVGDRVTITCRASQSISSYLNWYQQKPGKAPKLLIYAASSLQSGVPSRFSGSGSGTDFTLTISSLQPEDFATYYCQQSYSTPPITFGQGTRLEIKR
notes: human IgG1 constant region; tested as CHOt supernatant; also called Sample Number 30
B4: CompAb1 heavy chain variant S103T (antibody, human IgG1, V domains shown)
VH: QVQLQESGPGLVKPSETLSLTCIVSGGSISGYFWNWIRQPPGKGLEWIGYIYYSGTTIYNPSLKSRFTISLDTSKNQFSLKLTSVTAADTAVYYCARESYNPTPRYFDHWGQGTLVTVSS
VL: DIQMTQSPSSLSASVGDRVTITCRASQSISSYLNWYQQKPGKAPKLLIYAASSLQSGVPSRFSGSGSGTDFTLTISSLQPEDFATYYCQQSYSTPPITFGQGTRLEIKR
notes: human IgG1 constant region; tested as CHOt supernatant; also called Sample Number 34
B5: CompAb1 heavy chain variant S103Y (antibody, human IgG1, V domains shown)
VH: QVQLQESGPGLVKPSETLSLTCIVSGGSISGYFWNWIRQPPGKGLEWIGYIYYSGTTIYNPSLKSRFTISLDTSKNQFSLKLTSVTAADTAVYYCARESYNPYPRYFDHWGQGTLVTVSS
VL: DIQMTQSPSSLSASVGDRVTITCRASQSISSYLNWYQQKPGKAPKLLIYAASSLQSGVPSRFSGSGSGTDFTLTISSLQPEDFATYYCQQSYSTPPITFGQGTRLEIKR
notes: human IgG1 constant region; tested as CHOt supernatant; also called Sample Number 37
B6: CompAb1 heavy chain variant S103P (antibody, human IgG1, V domains shown)
VH: QVQLQESGPGLVKPSETLSLTCIVSGGSISGYFWNWIRQPPGKGLEWIGYIYYSGTTIYNPSLKSRFTISLDTSKNQFSLKLTSVTAADTAVYYCARESYNPPPRYFDHWGQGTLVTVSS
VL: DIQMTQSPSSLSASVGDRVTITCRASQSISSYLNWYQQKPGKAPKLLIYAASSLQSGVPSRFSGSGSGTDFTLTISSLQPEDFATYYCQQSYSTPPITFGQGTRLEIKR
notes: human IgG1 constant region; tested as CHOt supernatant; also called Sample Number 31
B7: CompAb1 heavy chain variant S103M (antibody, human IgG1, V domains shown)
VH: QVQLQESGPGLVKPSETLSLTCIVSGGSISGYFWNWIRQPPGKGLEWIGYIYYSGTTIYNPSLKSRFTISLDTSKNQFSLKLTSVTAADTAVYYCARESYNPMPRYFDHWGQGTLVTVSS
VL: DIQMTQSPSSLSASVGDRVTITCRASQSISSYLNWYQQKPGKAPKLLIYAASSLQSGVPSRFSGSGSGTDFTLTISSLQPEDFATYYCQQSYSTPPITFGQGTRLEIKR
notes: human IgG1 constant region; tested as CHOt supernatant; also called Sample Number 29
B8: CompAb1 heavy chain variant N101Q (antibody, human IgG1, V domains shown)
VH: QVQLQESGPGLVKPSETLSLTCIVSGGSISGYFWNWIRQPPGKGLEWIGYIYYSGTTIYNPSLKSRFTISLDTSKNQFSLKLTSVTAADTAVYYCARESYQPSPRYFDHWGQGTLVTVSS
VL: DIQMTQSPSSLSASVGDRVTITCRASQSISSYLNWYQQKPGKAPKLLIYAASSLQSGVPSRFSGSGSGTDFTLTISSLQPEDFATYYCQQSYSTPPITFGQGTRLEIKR
notes: human IgG1 constant region; tested as CHOt supernatant; also called Sample Number 13
B9: CompAb1 heavy chain variant S103L (antibody, human IgG1, V domains shown)
VH: QVQLQESGPGLVKPSETLSLTCIVSGGSISGYFWNWIRQPPGKGLEWIGYIYYSGTTIYNPSLKSRFTISLDTSKNQFSLKLTSVTAADTAVYYCARESYNPLPRYFDHWGQGTLVTVSS
VL: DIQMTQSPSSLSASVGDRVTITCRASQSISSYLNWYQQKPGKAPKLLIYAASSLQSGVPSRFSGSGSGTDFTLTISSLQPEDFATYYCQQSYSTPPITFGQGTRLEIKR
notes: human IgG1 constant region; tested as CHOt supernatant; also called Sample Number 28
B10: CompAb1 heavy chain variant S103F (antibody, human IgG1, V domains shown)
VH: QVQLQESGPGLVKPSETLSLTCIVSGGSISGYFWNWIRQPPGKGLEWIGYIYYSGTTIYNPSLKSRFTISLDTSKNQFSLKLTSVTAADTAVYYCARESYNPFPRYFDHWGQGTLVTVSS
VL: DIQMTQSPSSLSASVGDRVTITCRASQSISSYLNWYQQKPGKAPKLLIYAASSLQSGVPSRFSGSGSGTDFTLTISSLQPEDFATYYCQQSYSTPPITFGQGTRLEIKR
notes: human IgG1 constant region; tested as CHOt supernatant; also called Sample Number 23
B11: CompAb1 heavy chain variant S103E (antibody, human IgG1, V domains shown)
VH: QVQLQESGPGLVKPSETLSLTCIVSGGSISGYFWNWIRQPPGKGLEWIGYIYYSGTTIYNPSLKSRFTISLDTSKNQFSLKLTSVTAADTAVYYCARESYNPEPRYFDHWGQGTLVTVSS
VL: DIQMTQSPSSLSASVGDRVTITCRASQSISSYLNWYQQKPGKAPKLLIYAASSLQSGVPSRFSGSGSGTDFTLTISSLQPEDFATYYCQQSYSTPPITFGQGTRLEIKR
notes: human IgG1 constant region; tested as CHOt supernatant; also called Sample Number 22
B12: CompAb1 heavy chain variant S103A (antibody, human IgG1, V domains shown)
VH: QVQLQESGPGLVKPSETLSLTCIVSGGSISGYFWNWIRQPPGKGLEWIGYIYYSGTTIYNPSLKSRFTISLDTSKNQFSLKLTSVTAADTAVYYCARESYNPAPRYFDHWGQGTLVTVSS
VL: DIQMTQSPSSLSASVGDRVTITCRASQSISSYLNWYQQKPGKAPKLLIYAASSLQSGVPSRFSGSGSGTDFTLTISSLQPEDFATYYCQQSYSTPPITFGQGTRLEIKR
notes: human IgG1 constant region; tested as CHOt supernatant; also called Sample Number 20
B13: CompAb1 heavy chain variant S103W (antibody, human IgG1, V domains shown)
VH: QVQLQESGPGLVKPSETLSLTCIVSGGSISGYFWNWIRQPPGKGLEWIGYIYYSGTTIYNPSLKSRFTISLDTSKNQFSLKLTSVTAADTAVYYCARESYNPWPRYFDHWGQGTLVTVSS
VL: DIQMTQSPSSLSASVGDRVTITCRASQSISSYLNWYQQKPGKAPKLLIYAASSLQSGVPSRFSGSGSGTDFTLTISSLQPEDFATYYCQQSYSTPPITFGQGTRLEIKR
notes: human IgG1 constant region; tested as CHOt supernatant; also called Sample Number 36
B14: CompAb1 heavy chain variant N101K (antibody, human IgG1, V domains shown)
VH: QVQLQESGPGLVKPSETLSLTCIVSGGSISGYFWNWIRQPPGKGLEWIGYIYYSGTTIYNPSLKSRFTISLDTSKNQFSLKLTSVTAADTAVYYCARESYKPSPRYFDHWGQGTLVTVSS
VL: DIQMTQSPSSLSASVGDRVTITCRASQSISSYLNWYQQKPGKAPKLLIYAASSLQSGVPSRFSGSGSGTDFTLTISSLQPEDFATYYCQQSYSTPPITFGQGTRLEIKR
notes: human IgG1 constant region; tested as CHOt supernatant; also called Sample Number 9
B15: CompAb1 heavy chain variant N101R (antibody, human IgG1, V domains shown)
VH: QVQLQESGPGLVKPSETLSLTCIVSGGSISGYFWNWIRQPPGKGLEWIGYIYYSGTTIYNPSLKSRFTISLDTSKNQFSLKLTSVTAADTAVYYCARESYRPSPRYFDHWGQGTLVTVSS
VL: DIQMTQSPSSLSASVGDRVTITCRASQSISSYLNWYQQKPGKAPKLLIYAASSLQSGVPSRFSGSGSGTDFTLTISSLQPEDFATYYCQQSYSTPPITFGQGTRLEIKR
notes: human IgG1 constant region; tested as CHOt supernatant; also called Sample Number 14
B16: CompAb1 heavy chain variant S103Q (antibody, human IgG1, V domains shown)
VH: QVQLQESGPGLVKPSETLSLTCIVSGGSISGYFWNWIRQPPGKGLEWIGYIYYSGTTIYNPSLKSRFTISLDTSKNQFSLKLTSVTAADTAVYYCARESYNPQPRYFDHWGQGTLVTVSS
VL: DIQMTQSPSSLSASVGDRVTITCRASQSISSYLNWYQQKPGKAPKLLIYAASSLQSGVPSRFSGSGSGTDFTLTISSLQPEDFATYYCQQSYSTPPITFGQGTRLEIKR
notes: human IgG1 constant region; tested as CHOt supernatant; also called Sample Number 32
B17: CompAb1 heavy chain variant S103G (antibody, human IgG1, V domains shown)
VH: QVQLQESGPGLVKPSETLSLTCIVSGGSISGYFWNWIRQPPGKGLEWIGYIYYSGTTIYNPSLKSRFTISLDTSKNQFSLKLTSVTAADTAVYYCARESYNPGPRYFDHWGQGTLVTVSS
VL: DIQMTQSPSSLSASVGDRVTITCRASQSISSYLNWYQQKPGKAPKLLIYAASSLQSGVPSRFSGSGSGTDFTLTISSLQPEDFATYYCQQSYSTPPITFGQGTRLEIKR
notes: human IgG1 constant region; tested as CHOt supernatant; also called Sample Number 24
B18: CompAb1 heavy chain variant S103H (antibody, human IgG1, V domains shown)
VH: QVQLQESGPGLVKPSETLSLTCIVSGGSISGYFWNWIRQPPGKGLEWIGYIYYSGTTIYNPSLKSRFTISLDTSKNQFSLKLTSVTAADTAVYYCARESYNPHPRYFDHWGQGTLVTVSS
VL: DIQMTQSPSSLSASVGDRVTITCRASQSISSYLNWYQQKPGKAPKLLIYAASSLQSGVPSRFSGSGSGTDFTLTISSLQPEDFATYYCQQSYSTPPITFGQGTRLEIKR
notes: human IgG1 constant region; tested as CHOt supernatant; also called Sample Number 25
B19: CompAb1 heavy chain variant S103V (antibody, human IgG1, V domains shown)
VH: QVQLQESGPGLVKPSETLSLTCIVSGGSISGYFWNWIRQPPGKGLEWIGYIYYSGTTIYNPSLKSRFTISLDTSKNQFSLKLTSVTAADTAVYYCARESYNPVPRYFDHWGQGTLVTVSS
VL: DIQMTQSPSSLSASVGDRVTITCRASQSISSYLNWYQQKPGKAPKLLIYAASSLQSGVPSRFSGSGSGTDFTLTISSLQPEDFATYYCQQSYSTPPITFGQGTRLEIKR
notes: human IgG1 constant region; tested as CHOt supernatant; also called Sample Number 35
B20: CompAb1 heavy chain variant S103I (antibody, human IgG1, V domains shown)
VH: QVQLQESGPGLVKPSETLSLTCIVSGGSISGYFWNWIRQPPGKGLEWIGYIYYSGTTIYNPSLKSRFTISLDTSKNQFSLKLTSVTAADTAVYYCARESYNPIPRYFDHWGQGTLVTVSS
VL: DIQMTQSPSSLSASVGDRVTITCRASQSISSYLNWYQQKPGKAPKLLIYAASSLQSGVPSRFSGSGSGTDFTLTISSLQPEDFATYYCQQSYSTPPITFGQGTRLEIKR
notes: human IgG1 constant region; tested as CHOt supernatant; also called Sample Number 26
B21: CompAb1 heavy chain variant N101V (antibody, human IgG1, V domains shown)
VH: QVQLQESGPGLVKPSETLSLTCIVSGGSISGYFWNWIRQPPGKGLEWIGYIYYSGTTIYNPSLKSRFTISLDTSKNQFSLKLTSVTAADTAVYYCARESYVPSPRYFDHWGQGTLVTVSS
VL: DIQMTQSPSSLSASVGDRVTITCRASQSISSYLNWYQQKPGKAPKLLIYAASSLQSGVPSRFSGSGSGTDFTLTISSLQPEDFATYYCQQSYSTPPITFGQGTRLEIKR
notes: human IgG1 constant region; tested as CHOt supernatant; also called Sample Number 17
B22: CompAb1 heavy chain variant S103D (antibody, human IgG1, V domains shown)
VH: QVQLQESGPGLVKPSETLSLTCIVSGGSISGYFWNWIRQPPGKGLEWIGYIYYSGTTIYNPSLKSRFTISLDTSKNQFSLKLTSVTAADTAVYYCARESYNPDPRYFDHWGQGTLVTVSS
VL: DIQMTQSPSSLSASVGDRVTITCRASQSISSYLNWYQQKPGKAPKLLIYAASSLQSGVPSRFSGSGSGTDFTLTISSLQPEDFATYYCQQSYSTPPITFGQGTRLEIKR
notes: human IgG1 constant region; tested as CHOt supernatant; also called Sample Number 21

What was measured:
[1] = molecular target: T1, hGITR.mmH (soluble monomeric recombinant human GITR ectodomain protein) (human); experiment: SPR Biacore 2000 25C; CHOt supernatant antibody captured on anti-human Fc; 100 nM hGITR.mmH
T1 construct: also called monomeric human GITR
T1 chain: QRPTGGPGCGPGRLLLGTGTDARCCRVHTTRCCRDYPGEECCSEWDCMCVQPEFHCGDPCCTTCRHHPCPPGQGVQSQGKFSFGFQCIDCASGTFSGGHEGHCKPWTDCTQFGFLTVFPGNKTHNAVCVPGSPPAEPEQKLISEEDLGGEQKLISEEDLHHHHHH
Protocol: (§1) Biacore experiments for antibodies secreted in conditioned culture medium were performed as follows. Using a Biacore 2000 instrument at 25° C., antibodies were captured for 80 seconds at a flow rate of 8 uL/min on a CM5 anti-humanFc-coupled surface. Approximately 1000-2000 RU of each antibody were captured. 100 nM hGITR.mmH (soluble monomeric hGITR, SEQ ID NO: 45) or 50 nM hGITR.mFc (dimeric Macaca fasicularis GITR, SEQ ID NO: 46) were injected over this surface for 2 minutes at a flow rate of 50 uL/min. Dissociation was measured for 2 minutes. The KD and t_{1/2} were calculated by fitting the double-referenced sensorgrams to a 1:1 binding model.

[2] = molecular target: T2, hGITR.mFc (dimeric recombinant human GITR ectodomain protein, mouse Fc fusion) (human); experiment: SPR Biacore 2000 25C; CHOt supernatant antibody captured on anti-human Fc; 50 nM hGITR.mFc
T2 construct: also called dimeric human GITR; dimeric GITR
T2 chain: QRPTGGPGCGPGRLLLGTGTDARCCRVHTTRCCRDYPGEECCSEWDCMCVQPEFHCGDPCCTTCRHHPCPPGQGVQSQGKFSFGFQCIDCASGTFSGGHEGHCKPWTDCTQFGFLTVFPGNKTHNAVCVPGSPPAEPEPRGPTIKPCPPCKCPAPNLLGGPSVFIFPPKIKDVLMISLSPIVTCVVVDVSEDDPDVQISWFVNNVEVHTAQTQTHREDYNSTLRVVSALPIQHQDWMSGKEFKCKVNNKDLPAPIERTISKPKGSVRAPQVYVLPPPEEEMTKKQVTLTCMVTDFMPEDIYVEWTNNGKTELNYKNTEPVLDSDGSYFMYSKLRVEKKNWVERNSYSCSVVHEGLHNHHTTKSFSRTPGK
Protocol: as §1

Binder	Kd [1]	t1/2 [1]	Kd [2]	t1/2 [2]
B1	329 nM	1.32 min	27.5 nM	0.72 min
B2	152 nM	1.93 min	24 nM	0.82 min
B3	119 nM	0.95 min	1.01 nM	41.4 min
B4	29.6 nM	3.88 min	0.127 nM	249 min
B5	4.39 nM	26.6 min	3.03 nM	10.4 min
B6	28.4 nM	11.2 min	7.79 nM	2.92 min
B7	4.62 nM	15.2 min	1.04 nM	27.3 min
B8	3.41 nM	16.7 min	9.98 nM	3.86 min
B9	85.2 nM	4.59 min	15.9 nM	1.66 min
B10	7.35 nM	13.6 min	2.33 nM	12.8 min
B11	119 nM	0.76 min	0.742 nM	42.4 min
B12	108 nM	0.83 min	0.529 nM	50.3 min
B13	116 nM	0.94 min	1.61 nM	27 min
B14	17 nM	4.91 min	26.9 nM	0.99 min
B15			29.4 nM	0.86 min
B16	96.8 nM	0.92 min	0.255 nM	124 min
B17			5.56 nM	7.4 min
B18	12.6 nM	16.4 min	6.68 nM	4.63 min
B19	7.39 nM	14.7 min	3.82 nM	7.8 min
B20	10.1 nM	11.5 min	6.51 nM	4.41 min
B21	29.1 nM	3.46 min	23.9 nM	0.98 min
B22	77.1 nM	1.01 min	0.595 nM	65 min
